The labels stand for the following.
B1: glmS ribozyme (parent)
chain: AUAAAAGCGCCAGAACUACAGAAAUGUAGUUGACGAGGAGGAGGUUUAUCGAAUUUUCGGCGGAUGCCUCCAAA

What all share (conditions): with glucosamine-6-phosphate
Series [1] covers variants of B1. The series can be described thus: kcat; higher = faster cleavage; RNA array. A digest of the protocol:
(§1)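 A hybridised Cy3 probe tracked barcoded ribozyme variants, transcribed in situ by E. coli RNA polymerase on sequenced MiSeq chips, at 37 °C. The variants received 40 μM to 10 mM glucosamine-6-phosphate in HEPES/KCl/Mg(OAc)2 buffer. kobs came from decay fits and kcat and KM from weighted Michaelis–Menten fits.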

Variants of B1 are the subject of series [2]. The series can be described thus: KM; higher = weaker cofactor use; RNA array. A digest of the protocol: as §1
Series [3] covers variants of B1. The series can be described thus: self-cleavage kobs at 40 uM GlcN6P; higher = faster cleavage; RNA array. A digest of the protocol: as §1
In series [4] the parent is B1. Description: self-cleavage kobs at 160 uM GlcN6P; higher = faster cleavage; RNA array. An outline of the steps: as §1
The variants in series [5] derive from B1. The series can be described thus: self-cleavage kobs at 640 uM GlcN6P; higher = faster cleavage; RNA array. A digest of the protocol: as §1
In series [6] the parent is B1. Description: self-cleavage kobs at 2500 uM GlcN6P; higher = faster cleavage; RNA array. An outline of the steps:
as §1

In series [7] the parent is B1. The series can be described thus: self-cleavage kobs at 10000 uM GlcN6P; higher = faster cleavage; RNA array. An outline of the steps:
as §1

We go through 15 variants from the supplement of paper PMC7125110.

By kcat is commonly meant the maximal rate divided by the concentration of active sites. As a reminder, the KM is the concentration of substrate that gives half-maximal velocity.

± gives the standard error. For some assays here: Fewer inactive variants are shown than the library holds.

On to A14U A53U, for which, in the series with glucosamine-6-phosphate [1], the kcat came to 0.00789 ± 0.00051 s⁻¹. In addition, in the series with glucosamine-6-phosphate [2], the KM amounted to 2540 ± 240 µM. Besides, the “self-cleavage kobs at 40 uM GlcN6P” value with glucosamine-6-phosphate [3] came to 0.000127 ± 1.2e-05 s⁻¹. Also, the “self-cleavage kobs at 160 uM GlcN6P” value with glucosamine-6-phosphate [4] is 0.000453 ± 9.2e-05 s⁻¹. Further, the “self-cleavage kobs at 640 uM GlcN6P” value with glucosamine-6-phosphate [5] turned out to be 0.00157 ± 0.00019 s⁻¹. Further, the “self-cleavage kobs at 2500 uM GlcN6P” value with glucosamine-6-phosphate [6] came to 0.00355 ± 0.00044 s⁻¹. The “self-cleavage kobs at 10000 uM GlcN6P” value with glucosamine-6-phosphate [7] came out at 0.00654 ± 0.00056 s⁻¹.
For the variant A39U U56G, the kcat in the series with glucosamine-6-phosphate [1] turned out to be 0.0257 ± 0.011 s⁻¹. Further, the “self-cleavage kobs at 40 uM GlcN6P” value in the series with glucosamine-6-phosphate [3] turned out to be 0.000177 ± 2.7e-05 s⁻¹. For the same variant, the “self-cleavage kobs at 160 uM GlcN6P” value in the series with glucosamine-6-phosphate [4] came out at 0.000402 ± 8.7e-05 s⁻¹. Also, the “self-cleavage kobs at 640 uM GlcN6P” value in the series with glucosamine-6-phosphate [5] was 0.0021 ± 0.00031 s⁻¹. Also, the “self-cleavage kobs at 2500 uM GlcN6P” value in the series with glucosamine-6-phosphate [6] was determined as 0.00893 ± 0.0013 s⁻¹. The “self-cleavage kobs at 10000 uM GlcN6P” value with glucosamine-6-phosphate [7] amounted to 0.0139 ± 0.0021 s⁻¹.
Turning to A15U U45G, the kcat with glucosamine-6-phosphate [1] came out at 0.000918 ± 0.00015 s⁻¹. In addition, in the series with glucosamine-6-phosphate [2], the Michaelis-Menten constant (KM) is 2150 ± 560 µM. Also, in the series with glucosamine-6-phosphate [4], the “self-cleavage kobs at 160 uM GlcN6P” value stood at 5.29e-05 ± 1e-05 s⁻¹. For the same variant, the “self-cleavage kobs at 640 uM GlcN6P” value with glucosamine-6-phosphate [5] was determined as 0.000248 ± 3.2e-05 s⁻¹. The “self-cleavage kobs at 2500 uM GlcN6P” value in the series with glucosamine-6-phosphate [6] was 0.000552 ± 8.4e-05 s⁻¹. The “self-cleavage kobs at 10000 uM GlcN6P” value with glucosamine-6-phosphate [7] was 0.000705 ± 9.6e-05 s⁻¹.
On to G37A U47G U55G, for which the kcat with glucosamine-6-phosphate [1] turned out to be 0.000459 ± 0.00013 s⁻¹. For the same variant, the “self-cleavage kobs at 640 uM GlcN6P” value with glucosamine-6-phosphate [5] was 0.000101 ± 1.6e-05 s⁻¹. The “self-cleavage kobs at 2500 uM GlcN6P” value in the series with glucosamine-6-phosphate [6] turned out to be 0.000183 ± 2.9e-05 s⁻¹. Besides, in the series with glucosamine-6-phosphate [7], the “self-cleavage kobs at 10000 uM GlcN6P” value amounted to 0.000412 ± 6.3e-05 s⁻¹.
As to A39U U57C, in the series with glucosamine-6-phosphate [1], the kcat worked out at 0.00022 ± 2.2e-05 s⁻¹. Moreover, in the series with glucosamine-6-phosphate [2], the KM is 9720 ± 1500 µM. Also, the “self-cleavage kobs at 2500 uM GlcN6P” value with glucosamine-6-phosphate [6] is 4.56e-05 ± 8.7e-06 s⁻¹. For the same variant, the “self-cleavage kobs at 10000 uM GlcN6P” value in the series with glucosamine-6-phosphate [7] turned out to be 0.000111 ± 2.2e-05 s⁻¹.
On to A15G A53C, for which, in the series with glucosamine-6-phosphate [1], the kcat is 0.00857 ± 0.0011 s⁻¹. Further, in the series with glucosamine-6-phosphate [2], the KM was found to be 1860 ± 340 µM. In the series with glucosamine-6-phosphate [3], the “self-cleavage kobs at 40 uM GlcN6P” value amounted to 0.000205 ± 3.7e-05 s⁻¹. The “self-cleavage kobs at 160 uM GlcN6P” value in the series with glucosamine-6-phosphate [4] was 0.000653 ± 0.00021 s⁻¹. Further, the “self-cleavage kobs at 640 uM GlcN6P” value with glucosamine-6-phosphate [5] turned out to be 0.00195 ± 0.00035 s⁻¹. Moreover, in the series with glucosamine-6-phosphate [6], the “self-cleavage kobs at 2500 uM GlcN6P” value worked out at 0.00522 ± 0.0012 s⁻¹. The “self-cleavage kobs at 10000 uM GlcN6P” value in the series with glucosamine-6-phosphate [7] was found to be 0.00742 ± 0.0015 s⁻¹.
For the variant A6C C8U G35C C58G, in the series with glucosamine-6-phosphate [1], the kcat was less than 1e-05 s⁻¹. The “self-cleavage kobs at 640 uM GlcN6P” value with glucosamine-6-phosphate [5] is less than 1e-05 s⁻¹. The “self-cleavage kobs at 10000 uM GlcN6P” value in the series with glucosamine-6-phosphate [7] was less than 1e-05 s⁻¹.
Consider G40C C71A, for which, in the series with glucosamine-6-phosphate [1], the kcat is 0.00654 ± 0.0028 s⁻¹. Further, the “self-cleavage kobs at 40 uM GlcN6P” value in the series with glucosamine-6-phosphate [3] worked out at 0.000225 ± 3.8e-05 s⁻¹. In addition, the “self-cleavage kobs at 160 uM GlcN6P” value with glucosamine-6-phosphate [4] came to 0.000451 ± 6.2e-05 s⁻¹. The “self-cleavage kobs at 640 uM GlcN6P” value with glucosamine-6-phosphate [5] is 0.00213 ± 0.00024 s⁻¹. Besides, the “self-cleavage kobs at 10000 uM GlcN6P” value with glucosamine-6-phosphate [7] came out at 0.00527 ± 0.00096 s⁻¹.
Turning to A12C C70A, the kcat with glucosamine-6-phosphate [1] was determined as 0.000198 ± 2.9e-05 s⁻¹. In addition, in the series with glucosamine-6-phosphate [2], the KM was found to be 1030 ± 390 µM. Besides, the “self-cleavage kobs at 640 uM GlcN6P” value with glucosamine-6-phosphate [5] worked out at 6.98e-05 ± 1e-05 s⁻¹. The “self-cleavage kobs at 2500 uM GlcN6P” value in the series with glucosamine-6-phosphate [6] turned out to be 0.000174 ± 1.9e-05 s⁻¹. The “self-cleavage kobs at 10000 uM GlcN6P” value in the series with glucosamine-6-phosphate [7] amounted to 0.000162 ± 2e-05 s⁻¹.
Take A12C C70G: in the series with glucosamine-6-phosphate [1], the kcat stood at 0.000232 ± 6.8e-05 s⁻¹. The “self-cleavage kobs at 160 uM GlcN6P” value with glucosamine-6-phosphate [4] is 7.74e-05 ± 1.7e-05 s⁻¹. Also, in the series with glucosamine-6-phosphate [5], the “self-cleavage kobs at 640 uM GlcN6P” value was determined as 0.000119 ± 1.1e-05 s⁻¹. Moreover, in the series with glucosamine-6-phosphate [6], the “self-cleavage kobs at 2500 uM GlcN6P” value was found to be 0.000154 ± 1.8e-05 s⁻¹. For the same variant, the “self-cleavage kobs at 10000 uM GlcN6P” value with glucosamine-6-phosphate [7] stood at 0.000352 ± 4.1e-05 s⁻¹.
For G32A, the kcat with glucosamine-6-phosphate [1] turned out to be 0.00528 ± 0.00074 s⁻¹. Further, in the series with glucosamine-6-phosphate [2], the KM amounted to 4250 ± 750 µM. Moreover, the “self-cleavage kobs at 40 uM GlcN6P” value with glucosamine-6-phosphate [3] was determined as 5.63e-05 ± 1.2e-06 s⁻¹. For the same variant, the “self-cleavage kobs at 160 uM GlcN6P” value with glucosamine-6-phosphate [4] is 0.000185 ± 5.1e-06 s⁻¹. Besides, the “self-cleavage kobs at 640 uM GlcN6P” value with glucosamine-6-phosphate [5] turned out to be 0.00064 ± 1.1e-05 s⁻¹. Also, in the series with glucosamine-6-phosphate [6], the “self-cleavage kobs at 2500 uM GlcN6P” value is 0.00219 ± 7.7e-05 s⁻¹. Besides, in the series with glucosamine-6-phosphate [7], the “self-cleavage kobs at 10000 uM GlcN6P” value amounted to 0.00372 ± 7.6e-05 s⁻¹.
For the variant U54C G63U, the kcat with glucosamine-6-phosphate [1] was less than 1e-05 s⁻¹. Further, the “self-cleavage kobs at 640 uM GlcN6P” value in the series with glucosamine-6-phosphate [5] was less than 1e-05 s⁻¹.
For C68U, in the series with glucosamine-6-phosphate [1], the catalytic constant (kcat) stood at 0.00795 ± 0.003 s⁻¹. The KM with glucosamine-6-phosphate [2] was 2930 ± 1200 µM. Moreover, the “self-cleavage kobs at 40 uM GlcN6P” value with glucosamine-6-phosphate [3] is 0.000113 ± 1.6e-06 s⁻¹. For the same variant, the “self-cleavage kobs at 160 uM GlcN6P” value with glucosamine-6-phosphate [4] is 0.000316 ± 1.2e-05 s⁻¹. Moreover, in the series with glucosamine-6-phosphate [5], the “self-cleavage kobs at 640 uM GlcN6P” value is 0.0015 ± 6.4e-05 s⁻¹. In addition, the “self-cleavage kobs at 2500 uM GlcN6P” value with glucosamine-6-phosphate [6] was 0.00371 ± 0.00012 s⁻¹.
For G41C C68U, the catalytic constant (kcat) in the series with glucosamine-6-phosphate [1] was less than 1e-05 s⁻¹. Also, the “self-cleavage kobs at 40 uM GlcN6P” value with glucosamine-6-phosphate [3] is less than 1e-05 s⁻¹. Moreover, the “self-cleavage kobs at 640 uM GlcN6P” value in the series with glucosamine-6-phosphate [5] was less than 1e-05 s⁻¹.
As to A14U C67A, the kcat with glucosamine-6-phosphate [1] is 0.00153 ± 0.00048 s⁻¹. The KM with glucosamine-6-phosphate [2] turned out to be 1240 ± 540 µM. In the series with glucosamine-6-phosphate [3], the “self-cleavage kobs at 40 uM GlcN6P” value stood at 6.24e-05 ± 7.4e-06 s⁻¹. Also, the “self-cleavage kobs at 160 uM GlcN6P” value in the series with glucosamine-6-phosphate [4] is 0.000172 ± 2.5e-05 s⁻¹. Further, in the series with glucosamine-6-phosphate [5], the “self-cleavage kobs at 640 uM GlcN6P” value was determined as 0.000406 ± 5.4e-05 s⁻¹. Besides, the “self-cleavage kobs at 2500 uM GlcN6P” value in the series with glucosamine-6-phosphate [6] stood at 0.00137 ± 0.00031 s⁻¹. The “self-cleavage kobs at 10000 uM GlcN6P” value with glucosamine-6-phosphate [7] was determined as 0.00155 ± 0.00023 s⁻¹.
